Reference: publication PMC12380274

How the values were obtained:
[1] = target: full-length pUL47 (RB-1B) with SR motif 3 mutated to AA, fused to the GAL4 DNA-binding domain (Marek's Disease Virus (Gallid alphaherpesvirus 2), strain RB-1B); experiment: two-hybrid; SR mutants and Δ71-185 of pUL47 in pGBKT7 against p32(M9); β-galactosidase coloration and liquid β-galactosidase quantification relative to full-length pUL47 (1-808), triplicates over three experiments (Fig 4B, 4C)
[2] = target: full-length pUL47 (RB-1B) with SR motif 4 mutated to AA, fused to the GAL4 DNA-binding domain (Marek's Disease Virus (Gallid alphaherpesvirus 2), strain RB-1B); experiment: as above
[3] = target: pUL47 (RB-1B) domain 71-185 fused to the GAL4 DNA-binding domain (Marek's Disease Virus (Gallid alphaherpesvirus 2), strain RB-1B); experiment: as above
[4] = target: chicken p32/C1QBP/gC1qR clone M9 (residues 76-278) fused to the GAL4 activation domain (UniProt A0A8V1AMS0); experiment: yeast two-hybrid, liquid β-galactosidase (ONPG) assay; settings: triplicates over three independent experiments; for response: parent: 16.2

Substance | response [4] [% vs 1-808] | further results
chicken p32/C1QBP/gC1qR clone M9 (residues 76-278) fused to the GAL4 activation domain (from UniProt A0A8V1AMS0 76-278) (domain or fragment) |  | reduction of β-galactosidase signal against full-length pUL47 [1]: 30%; reduction of β-galactosidase signal against full-length pUL47 [2]: 30%; β-galactosidase signal, percent of full-length pUL47 [3]: 16%
pUL47 (RB-1B) domain 71-185 fused to the GAL4 DNA-binding domain SR1 (SR motif 1, Ser-Arg to Ala-Ala) | 25.4 | 
pUL47 (RB-1B) domain 71-185 fused to the GAL4 DNA-binding domain SR1 (Ser-Arg to Ala-Ala); SR2 (Ser-Arg to Ala-Ala) | 24 | 
pUL47 (RB-1B) domain 71-185 fused to the GAL4 DNA-binding domain SR2 (SR motif 2, Ser-Arg to Ala-Ala) | 13 | 
pUL47 (RB-1B) domain 71-185 fused to the GAL4 DNA-binding domain SR3 (Ser-Arg to Ala-Ala); SR4 (Ser-Arg to Ala-Ala) | 3.7 | 
pUL47 (RB-1B) domain 71-185 fused to the GAL4 DNA-binding domain SR5 (SR motif 5, Ser-Arg to Ala-Ala) | 20.4 | 
pUL47 (RB-1B) domain 71-185 fused to the GAL4 DNA-binding domain SR5 (Ser-Arg to Ala-Ala); SR6 (Ser-Arg to Ala-Ala) | 10.1 | 
pUL47 (RB-1B) domain 71-185 fused to the GAL4 DNA-binding domain SR6 (SR motif 6, Ser-Arg to Ala-Ala) | 8.2 | 
pUL47 of Marek's Disease Virus (RB-1B), full length, fused to the GAL4 DNA-binding domain (pGBKT7-UL47) SR3 (Ser-Arg to Ala-Ala); SR4 (Ser-Arg to Ala-Ala) |  | percent of parent ([4]; parent: 100): 71.2 % vs 1-808
